# Source: patent US20260217847A1 (NANJING REGENECORE BIOTECH, published 2026)
# T1: TfR1 peptide D1-helix1 (human)
# T1 construct: Synthetic peptide, captured on a streptavidin-coated plate; also called peptide No. 1
# T1 peptide: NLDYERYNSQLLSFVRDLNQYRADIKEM
# T2: TfR1 peptide D1-helix2-helix3 (human)
# T2 construct: Synthetic peptide, captured on a streptavidin-coated plate; also called peptide No. 4
# T2 peptide: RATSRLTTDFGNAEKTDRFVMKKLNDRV
# T3: TfR1 peptide D3-helix1 (human)
# T3 construct: Synthetic peptide, captured on a streptavidin-coated plate; also called peptide No. 5
# T3 peptide: RLYWDDLKRKLSEKLDSTD
# T4: TfR1 peptide D3-helix2 (human)
# T4 construct: Synthetic peptide, captured on a streptavidin-coated plate; also called peptide No. 6
# T4 peptide: FTSTIKLLNENSYV
# T5: TfR1 peptide D3-helix3 (human)
# T5 construct: Synthetic peptide, captured on a streptavidin-coated plate; also called peptide No. 7
# T5 peptide: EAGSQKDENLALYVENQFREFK
# T6: TfR1 peptide D3-helix1-helix2 (human)
# T6 construct: Synthetic peptide, captured on a streptavidin-coated plate; also called peptide No. 8
# T6 peptide: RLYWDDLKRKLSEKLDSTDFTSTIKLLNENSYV
# T7: TfR1 peptide D3-helix2-helix3 (human)
# T7 construct: Synthetic peptide, captured on a streptavidin-coated plate; also called peptide No. 9
# T7 peptide: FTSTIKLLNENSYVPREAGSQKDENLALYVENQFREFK
# T8: TfR1 peptide D3-helix3-loop1 (human)
# T8 construct: Synthetic peptide, captured on a streptavidin-coated plate; also called peptide No. 10
# T8 peptide: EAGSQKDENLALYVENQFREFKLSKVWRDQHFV
# T9: TfR1 peptide D3-loop1 (human)
# T9 construct: Synthetic peptide, captured on a streptavidin-coated plate; also called peptide No. 11
# T9 peptide: LSKVWRDQHFV
# T10: TfR1 peptide D2-loop1 (human)
# T10 construct: Synthetic peptide, captured on a streptavidin-coated plate; also called peptide No. 12
# T10 peptide: GTKKDFEDLY
# T11: TfR1 peptide D2-loop1-K (human)
# T11 construct: Synthetic peptide, captured on a streptavidin-coated plate; also called peptide No. 13
# T11 peptide: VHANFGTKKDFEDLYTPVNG
# T12: TfR1 peptide D2-loop3-K (human)
# T12 construct: Synthetic peptide, captured on a streptavidin-coated plate; also called peptide No. 14
# T12 peptide: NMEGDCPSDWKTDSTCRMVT
# T13: TfR1 peptide D1-helix5 (human)
# T13 construct: Synthetic peptide, captured on a streptavidin-coated plate; also called peptide No. 17
# T13 peptide: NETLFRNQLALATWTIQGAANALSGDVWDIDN
# T14: TfR1 peptide D2-loop2-K (human)
# T14 construct: Synthetic peptide, captured on a streptavidin-coated plate; also called peptide No. 21
# T14 peptide: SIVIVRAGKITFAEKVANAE
# T15: TfR1 peptide D2-loop1-loop2 (human)
# T15 construct: Synthetic peptide, captured on a streptavidin-coated plate; also called peptide No. 15
# T15 peptide: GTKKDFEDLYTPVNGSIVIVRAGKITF
# B1: anti-humanized TfR1 single-domain antibody-Fc fusion antibody 2H7-hFC1 (Fc fusion)
# chain (part 1 of 2): ESGGGLVQPGESLRLSCVASGSIWSIYTMGWYRQAPGKQRDFVASITGDSTRTLESVKDRFIISRDNTKNTLYLQMNSLKPEDTAVYYCQAITSLGEYWGQGTQVTVSS
# notes: Expressed in 293F cells, Protein A purified; labelled with pHrodo iFL Green in the internalization assays; also called VHH-hFc; not shown: human IgG1 Fc: hinge, CH2 and CH3 regions, from vector RJK-V4-hFC1; limits and junction (multiple cloning site) not stat
# Assays:
# [1] = molecular target: T1, TfR1 peptide D1-helix1; experiment: peptide ELISA on streptavidin plate, 2 µg/mL 2H7-hFc
# Description: (§1) The peptide-antibody binding was identified using a standard enzyme-linked immunosorbent assay (ELISA). The steps were as follows: [0244] (1) The wells of an ELISA plate were coated with 100 μL of 2 μg/mL SA (streptavidin) protein at 4° C. overnight. […] (2) The wells of the ELISA plate were washed with PBST buffer. After adding 200 μL of 2% BSA, the plate was blocked at 37° C. for 1 h. […] (3) The peptide protein was diluted to 2 μg/mL, and a negative control and a positive control (AVI-tagged TfR1 protein) were included. Each experiment contained duplicate controls. […] (4) The wells of the ELISA plate were washed multiple times with PBST buffer. Then, 100 μL of the diluted peptide protein solution from step (3) was added into wells in duplicate, and along with the negative control wells, incubated at 37° C. for 1 h. [0248] (5) The wells of the ELISA plate were washed multiple times with PBST buffer. […] [0249] (6) The wells of the ELISA plate were washed multiple times with PBST buffer. Then, 100 μL of 2× anti-hFc HRP secondary antibody was added, and the plate was incubated at 37° C. for 1 h. [0250] (7) The wells of the ELISA plate were washed multiple times with PBST buffer. After adding 100 μL of TMB chromogenic solution, the reaction was carried out in the dark at room temperature for 30 min. [0251] (8) 100 μL of stop solution (1 mol/L HCl) was added to terminate the reaction. OD450 was measured using a microplate reader, and the readings were recorded.
# [2] = molecular target: T2, TfR1 peptide D1-helix2-helix3; experiment: as above
# Description: as §1
# [3] = molecular target: T3, TfR1 peptide D3-helix1; experiment: as above
# Description: as §1
# [4] = molecular target: T4, TfR1 peptide D3-helix2; experiment: as above
# Description: as §1
# [5] = molecular target: T5, TfR1 peptide D3-helix3; experiment: as above
# Description: as §1
# [6] = molecular target: T6, TfR1 peptide D3-helix1-helix2; experiment: as above
# Description: as §1
# [7] = molecular target: T7, TfR1 peptide D3-helix2-helix3; experiment: as above
# Description: as §1
# [8] = molecular target: T8, TfR1 peptide D3-helix3-loop1; experiment: as above
# Description: as §1
# [9] = molecular target: T9, TfR1 peptide D3-loop1; experiment: as above
# Description: as §1
# [10] = molecular target: T10, TfR1 peptide D2-loop1; experiment: as above
# Description: as §1
# [11] = molecular target: T11, TfR1 peptide D2-loop1-K; experiment: as above
# Description: as §1
# [12] = molecular target: T12, TfR1 peptide D2-loop3-K; experiment: as above
# Description: as §1
# [13] = molecular target: T13, TfR1 peptide D1-helix5; experiment: as above
# Description: as §1
# [14] = molecular target: T14, TfR1 peptide D2-loop2-K; experiment: as above
# Description: as §1
# [15] = molecular target: T2, TfR1 peptide D1-helix2-helix3; experiment: peptide ELISA on streptavidin plate, 2 µg/mL 2H7-hFc, anti-hFc HRP
# Description: as §1
# [16] = molecular target: T6, TfR1 peptide D3-helix1-helix2; experiment: as above
# Description: as §1
# [17] = molecular target: T7, TfR1 peptide D3-helix2-helix3; experiment: as above
# Description: as §1
# [18] = molecular target: T15, TfR1 peptide D2-loop1-loop2; experiment: as above
# Description: as §1
# [19] = molecular target: T14, TfR1 peptide D2-loop2-K; experiment: as above
# Description: as §1
binder,measurement,setting,value
B1,binding result,[1],"no binding (tested: P/N 1.2, limit 2)"
same,binding result,[2],"no binding (tested: P/N 1.4, limit 2)"
same,binding result,[3],"no binding (tested: P/N 1.1, limit 2)"
same,binding result,[4],"no binding (tested: P/N 1.3, limit 2)"
same,binding result,[5],"no binding (tested: P/N 1.1, limit 2)"
same,binding result,[6],"no binding (tested: P/N 1.1, limit 2)"
same,binding result,[7],"no binding (tested: P/N 1.2, limit 2)"
same,binding result,[8],"no binding (tested: P/N 1.7, limit 2)"
same,binding result,[9],"no binding (tested: P/N 1.4, limit 2)"
same,binding result,[10],"no binding (tested: P/N 1.4, limit 2)"
same,binding result,[11],"no binding (tested: P/N 1.2, limit 2)"
same,binding result,[12],"no binding (tested: P/N 1.5, limit 2)"
same,binding result,[13],"no binding (tested: P/N 1.2, limit 2)"
same,binding result,[14],"no binding (tested: P/N 1.3, limit 2)"
same,OD450,[15],0.19
same,OD450,[16],0.274
same,OD450,[17],0.247
same,OD450,[18],1.12
same,P/N,[18],6.4
same,OD450,[19],0.16
